Laboratory results from article PMC7556403.
One block for each substance: values may come before it.

Experiments:
MBP–APO1 mSOL (human) = MBP–APO1 mSOL (human) (UniProt P41238); assay: SEC; MBP–APO1 fusion proteins; SEC in 20 mM HEPES pH 7.5, 500 mM NaCl, 0.5 mM TCEP
MBP–APO1 mXT (human) [1] = target: MBP–APO1 mXT (human) (UniProt P41238); assay: SEC-MALS; MBP–APO1 fusions with Leu, Gln or Ala at position 173; SEC and MALS
MBP–APO1 mXT (human) [2] = target: MBP–APO1 mXT (human) (UniProt P41238); assay: SEC; MBP–APO1 fusion proteins; SEC in 20 mM HEPES pH 7.5, 500 mM NaCl, 0.5 mM TCEP
[3] = target: MBP–APO1 mXT-173L (human) (UniProt P41238); assay: SEC-MALS; MBP–APO1 fusions with Leu, Gln or Ala at position 173; SEC and MALS
[4] = target: MBP–APO1 mXT-173Q (human) (UniProt P41238); assay: as above

stoichiometry N (MBP–APO1 mSOL (human)): 2
Substance: MBP–APO1 mSOL (from UniProt P41238 1-236) (enzyme)

stoichiometry N (MBP–APO1 mXT (human) [1]): 2
stoichiometry N (MBP–APO1 mXT (human) [2]): 2
Substance: MBP–APO1 mXT (from UniProt P41238 15-236) (enzyme)

stoichiometry N [3]: 2
Substance: MBP–APO1 mXT-173L (from UniProt P41238 15-236) (enzyme)

percent in the dimer peak [4]: 1 to 2%
Substance: MBP–APO1 mXT-173Q (from UniProt P41238 15-236) (enzyme)
